{"source": "patent US20260137799A1", "about": "“ANTI-MUC1* ANTIBODY DRUG COMPLEXES AND USES THEREOF” (Minerva Biotechnologies Corporation, priority 2023, published 2026)", "molecules": {"B1": {"name": "3C2B1-deruxtecan (antibody, V domains shown)", "VH": "EVMLVESGGGLVKPGGSLKLSCAASGITFSTYTMSWVRQTPEKRLEWVATISTGGDKTYYSDSVKGRFTISRDNAKNNLYLQMSSLRSEDTALYYCARGTTAMYYYAMDYWGQGTSVTVSS", "VL": "DIVLTQSPASLAVSLGQRATISCRASKSISTSDYNYIHWYQQKPGQPPKLLIYLASNLESGVPARFSGSGSGTDFTLNIHPVEEEDAATYYCQHSRELPLTFGAGTKLELK", "modifications": "deruxtecan (MC-GGFG-AM-DXd) on reduced cysteine thiols of the antibody, sites not stated; deruxtecan (MC-GGFG-AM-DXd) on reduced cysteine thiols of the antibody, sites not stated; average DAR 9.2"}, "B2": {"name": "18G12: anti-MUC1* monoclonal antibody that bound to the PSMGFR peptide (antibody, V domains shown)", "VH": "QVQLVQSGAEVKKPGASVKVSCKASGYTFTGYFLYWVRQAPGQGLEWIGGINPDNGGIDFNEKFRNRATLTVDKSSSTAYMELSSLRSEDTAVYYCTLLIGNYWGQGTLVTVSS", "VL": "DVVMTQTPSSLSVTPGQPASISCKSSQSLLHSDGKTYLIWLQQKPGQSPQRLIYLVSKLDSGVPDRFSGSGSGTDFTLKISRVEAEDVGVYYCCQGTHFPWTFGQGTKVEIK"}, "B3": {"name": "28F9: anti-MUC1* monoclonal antibody that bound to the PSMGFR peptide (antibody, V domains shown)", "VH": "B2 VH with N52H, D54S, G57D, I58T, R65K, K74I, E89D, T97A, L98R, N102V", "VL": "B2 VL with T7S, S9L, P15L, K44R, Q50R, Y92F", "modifications": "humanized form"}}, "key": {"[1]": {"test_system": "HPAF-II MUC1*", "test": "xCELLigence impedance cytotoxicity, HPAF-II MUC1*", "assay_type": "cell-based, human", "details": "Example 9 (FIG. 35); average; read-out: IC50, HPAFII cells engineered to express MUC1*45", "protocol": "(§1) An xCELLigence RTCA MP Instrument (Agilent) was used to assess real-time killing of target cancer cells). In the xCELLigence system, target cancer cells, which are adherent, are plated onto electrode array 96-well plates. Adherent cells insulate the electrode and increase the impedance. The number of adherent cancer cells is directly proportional to impedance. […] Therefore, increasing impedance reflects the growth of the cancer cells and decreasing impedance reflects the killing of the cancer cells.\n(§2) Target Cancer cells (Table 9) were seeded onto a multi-electrode well plate at a density of 5000 cells/well (100 μL of a 50,000 cells/mL stock) and incubated for 24 hr in a 37° C./5% CO2 incubator. ADCs were prepared as a 2× solution in corresponding growth media and 100 μL of each concentration was added to target cells. As a positive control (100% cell killing) cells were treated with either 1% triton or 1 μM Taxol instead of ADC. After 40-120 hours incubation in a 37° C./5% CO2 incubator cell killing was assessed. In this assay, impedance is measured in real-time. When the adherent cancer cells are killed and come off the electrode surface, impedance (insulation) decreases."}, "[2]": {"test_system": "T47D", "test": "xCELLigence impedance cytotoxicity, T47D", "assay_type": "cell-based, human", "details": "Example 9 (FIGS. 35-36); average over batches for DXd ADCs; read-out: IC50 for killing of breast cancer T47D-wt cells", "protocol": "as §1, §2"}, "[3]": {"test_system": "CFPAC1-wt pancreatic cancer cell line", "test": "xCELLigence impedance cytotoxicity, CFPAC1", "assay_type": "cell-based, human", "details": "Example 9 (FIGS. 35-36); read-out: IC50, CFPAC1-wt pancreatic cancer cells", "protocol": "as §1, §2\n(§3) To directly compare the C2 and 3C2B1 anti-MUC1* antibodies as ADC targeting domains, a panel of MUC1* positive cancer cell lines representing different cancer types were treated with C2-deruxtecan versus 3C2B1-deruxtecan (FIG. 35) or C2-MC-VA-PAB-exatecan versus 3C2B1-MC-VA-PAB-exatecan (FIG. 36). In some cases, the cancer cells were engineered to express high levels of MUC1*45."}, "[4]": {"test_system": "H1975-MUC1*45 cells", "test": "Antibody internalization (pHrodo Deep Red), H1975-MUC1*45", "assay_type": "cell-based, human", "details": "H1975-MUC1*45 vs H1975-wt", "protocol": "(§4) Antibodies C2 and 3C2B1 were tested for their ability to be internalized by H1975 lung cancer cells (H1975-wt) and H1975 cells that were engineered to express high levels of a recombinant MUC1* polypeptide with a 45 amino acid extracellular domain (H1975-MUC1*45). In contrast to the T47D breast cancer cells, H1975-wt cells internalized 3C2B1 faster than they internalized C2 (FIGS. 4A1-4A28, 4C1-4C28 and 4E). Two (2) hours post incubation with H1975-wt cells, […] the cells had internalized C2. […] Similar to the T47D cells, MUC1*45 expression increased the internalization rate of C2 and decreased the internalization rate of 3C2B1 (FIGS. 4B1-4B28, 4D1-4D28 and 4E).\n(§5) Antibodies C2 and 3C2B1 were coupled to a pH sensitive fluorophore using the pHrodo Deep Red TFP Ester kit (Thermo cat #P35356), according to manufacturer instructions. Cancer cells were seeded at ˜50,000 cells/well onto μ-Slide 8-well tissue culture-treated, chambered coverslip wells (Ibidi 80806) in their recommended media with 10% FBS. Cells were cultured for 48 hours. Slides were transferred into microscope chamber (37° C.—5% CO2) and equilibrated for ˜30 minutes. The pHrodo Deep Red coupled antibody was then diluted to a concentration of 200 to 300 μg/mL into pre-warmed media supplemented with 10% FBS. Media was removed from the chamber slides and the diluted antibodies were separately added. Fluorescent (655 nm) and phase contrast images at were collected every 10 min for 12h or 16 h with a Leica Thunder Live Cell 3D microscope.\n(§6) Internalization of the fluorescently labeled antibodies was quantified as follows. Images were imported into ImageJ. The selection tool was used to draw a region of interest (ROI) on the image. The integrated pixel density (mean gray-scale value×area) was then measured by the ImageJ software. Positively-stained cells were manually counted and the integrated pixel density was divided by the number of positive cells to yield “Pixel Intensity per positive cell”."}, "[5]": {"test_system": "H1975 lung cancer cells (H1975-wt)", "test": "Antibody internalization (pHrodo Deep Red), H1975-wt", "assay_type": "cell-based, human", "details": "H1975 cells", "protocol": "as §4, §5, §6"}, "[6]": {"molecular_target": "MUC1*45 (UniProt P15941 1110-1255)", "test": "cell-based or functional assay"}, "[7]": {"test_system": "H2110-wt lung cancer cell line", "test": "xCELLigence impedance cytotoxicity, H2110", "assay_type": "cell-based, human", "details": "Example 9 (FIGS. 35-36); read-out: IC50, lung cancer H2110-wt cells", "protocol": "as §1, §2, §3"}, "[8]": {"test_system": "HPAF-II", "test": "xCELLigence impedance cytotoxicity, HPAF-II", "assay_type": "cell-based, human", "details": "Example 9 (FIG. 35); average; listed as 3C2B1-MC-GGFG-AM-DXd; read-out: IC50 for killing of HPAFII-wt pancreatic cancer cells", "protocol": "as §1, §2"}, "[9]": {"test_system": "MUC1 after cleavage by MMP9", "sequence (P15941 1120-1255 limits assumed)": "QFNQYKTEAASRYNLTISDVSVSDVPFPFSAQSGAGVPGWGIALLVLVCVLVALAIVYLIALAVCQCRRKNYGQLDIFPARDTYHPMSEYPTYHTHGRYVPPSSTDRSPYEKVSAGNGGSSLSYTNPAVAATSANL", "test": "Binding to MUC1-expressing cells after MMP9 cleavage", "assay_type": "cell-based", "protocol": "The binding strength of anti-MUC1* antibodies is evaluated by determining their ability to displace NMF7-AB (a MUC1* ligand) from MUC1* immobilized on the plastic surface of a 96-well plate. Because the cancer-selective MUC1* epitope is a conformational epitope, cancer-selective anti-MUC1* antibodies should not recognize MUC1* on a western blot, where the epitope is linearized. MMP9 is a protease that cleaves MUC1 to generate MUC1*. MMP9 is a predictor of poor prognosis for breast cancers. Some cancer-selective anti-MUC1* antibodies, particularly breast cancer selective antibodies, should bind to cells engineered to express MUC1 after they are contacted with MMP9 to convert the MUC1 to MUC1*."}, "[10]": {"molecular_target": "PSMGFR C-10 peptide (SEQ ID NO: 3) (Homo sapiens, UniProt P15941)", "sequence (P15941 1110-1144 limits assumed)": "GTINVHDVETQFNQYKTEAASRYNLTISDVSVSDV", "test": "ELISA binding to PSMGFR C-10 peptide", "details": "ELISA", "source_text": "Cancer selective anti-MUC1* antibodies bind to a membrane proximal conformational epitope within the MUC1* extracellular domain, as described in WO 2020/146902.\nThe 3C2B1 epitope was mapped more precisely with additional PSMGFR peptide variants (FIGS. 2A, 2B)."}}, "note": "Where a chain is given by its changes, count along the chain named.", "data": [{"molecule": "B1", "values": [{"measurement": "IC50", "setting": "[1]", "value": 160, "unit": "nM"}, {"measurement": "IC50", "setting": "[2]", "value": 61, "unit": "nM"}, {"measurement": "IC50", "setting": "[3]", "value": 34, "unit": "nM"}, {"measurement": "effect of MUC1*45 expression on internalization rate", "setting": "[4]", "value": "inhibited"}, {"measurement": "internalization rate of the ADC compared to antibody alone", "setting": "[5]", "value": "about the same rate as the 3C2B1 antibody alone"}, {"measurement": "IC50, killing of H1975 lung cancer cells engineered to express MUC1*45 (xCELLigence)", "setting": "[6]", "value": 343, "unit": "nM"}, {"measurement": "IC50, killing of T47D breast cancer cells engineered to express more MUC1*45 (xCELLigence)", "setting": "[6]", "value": 48, "unit": "nM"}, {"measurement": "IC50", "setting": "[7]", "value": 90, "unit": "nM"}, {"measurement": "IC50", "setting": "[8]", "value": "> 303", "unit": "nM"}]}, {"molecule": "B2", "values": [{"measurement": "Recognizes MUC1 after cleavage by MMP9", "setting": "[9]", "value": 0}, {"measurement": "Does not bind C-10", "setting": "[10]", "value": 0}]}, {"molecule": "B3", "values": [{"measurement": "Recognizes MUC1 after cleavage by MMP9", "setting": "[9]", "value": 0}, {"measurement": "Does not bind C-10", "setting": "[10]", "value": 0}]}]}
